Biological target: T1, FLAG epitope-tagged holoreceptor of human type 1 insulin-like growth factor receptor (hIGFR) (human, UniProt P08069 31-1367)
T1 construct: The holoreceptor was captured on 96 well plates coated with anti-FLAG monoclonal antibody; also called IGF-R1; IGF-1R
Assay: competitive displacement of 125I-labeled human insulin from plate-captured FLAG-tagged hIGFR

T1 sequence (P08069 31-1367 limits assumed): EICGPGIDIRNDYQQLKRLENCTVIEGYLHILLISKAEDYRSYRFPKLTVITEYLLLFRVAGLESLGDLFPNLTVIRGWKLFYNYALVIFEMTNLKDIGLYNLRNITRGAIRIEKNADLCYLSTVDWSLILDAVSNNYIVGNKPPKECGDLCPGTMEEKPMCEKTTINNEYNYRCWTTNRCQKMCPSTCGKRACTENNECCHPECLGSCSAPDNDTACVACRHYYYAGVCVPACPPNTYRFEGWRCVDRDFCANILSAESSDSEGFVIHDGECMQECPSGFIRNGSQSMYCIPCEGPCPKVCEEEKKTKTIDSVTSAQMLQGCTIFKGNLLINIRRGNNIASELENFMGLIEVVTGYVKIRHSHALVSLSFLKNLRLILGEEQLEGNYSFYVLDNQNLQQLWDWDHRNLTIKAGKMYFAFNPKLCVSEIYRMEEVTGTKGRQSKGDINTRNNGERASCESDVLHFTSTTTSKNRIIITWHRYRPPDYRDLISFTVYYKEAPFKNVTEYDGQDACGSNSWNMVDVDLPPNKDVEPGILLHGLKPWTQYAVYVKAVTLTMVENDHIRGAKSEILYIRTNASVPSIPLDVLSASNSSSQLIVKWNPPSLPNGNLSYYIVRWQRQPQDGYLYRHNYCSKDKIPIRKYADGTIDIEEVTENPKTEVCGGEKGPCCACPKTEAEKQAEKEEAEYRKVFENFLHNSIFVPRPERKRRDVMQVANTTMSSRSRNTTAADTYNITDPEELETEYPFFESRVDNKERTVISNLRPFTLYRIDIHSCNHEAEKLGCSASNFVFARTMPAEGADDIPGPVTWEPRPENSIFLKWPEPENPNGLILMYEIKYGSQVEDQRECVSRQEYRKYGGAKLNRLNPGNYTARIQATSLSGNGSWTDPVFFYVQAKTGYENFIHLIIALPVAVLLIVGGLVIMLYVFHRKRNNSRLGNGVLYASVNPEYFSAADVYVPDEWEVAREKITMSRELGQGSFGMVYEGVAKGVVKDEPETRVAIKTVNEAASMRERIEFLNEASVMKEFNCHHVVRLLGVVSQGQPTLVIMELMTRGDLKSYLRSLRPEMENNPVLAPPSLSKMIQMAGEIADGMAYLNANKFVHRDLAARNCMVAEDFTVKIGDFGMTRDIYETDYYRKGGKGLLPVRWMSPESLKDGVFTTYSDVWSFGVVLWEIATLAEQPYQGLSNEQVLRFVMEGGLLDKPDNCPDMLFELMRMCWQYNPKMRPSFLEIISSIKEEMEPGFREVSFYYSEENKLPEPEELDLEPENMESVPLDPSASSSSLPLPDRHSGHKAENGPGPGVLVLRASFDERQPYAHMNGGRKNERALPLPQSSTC

B1: des-[B1, B2], Glu^B3, His^A8, Glu^A14, Gln^A17, des-B30-insulin (T-0706) (ligand)
chain 1: GIVEQCCHSICSLEQLQNYCN
chain 2: EQHLCGSHLVEALYLVCGERGFFYTPK
modifications: not fully specified
notes: Formulated without zinc; also called HA8 EA14 QA17 des[B1-B2]; EB3 desB30
What does the source list for B1?
Binding Affinity: 0.16; IGF1-R (Rel. Aff.), relative to insulin lispro: 18%

Reference: patent US20220112262A1 (CASE WESTERN RESERVE UNIVERSITY, published 2022)
